Laboratory results from patent publication US20080113907A1, “Uses Of Galectin-2” (Charite-Universitat-Smedizin Berlin, priority 2004, published 2008).

Key:
[1] = test system: acute and chronic DSS colitis; assay: Dose finding studies in acute and chronic DSS colitis; type: in vivo, BALB/c mice
Procedure: Acute and chronic colitis were induced in BALB/c mice by adding 5% DSS to the drinking water for 7 days to induce acute colitis, or for 3 cycles of 7 days DSS following 7 days without DSS to induce chronic colitis, respectively (Siegmund B, Lehr H A, Fantuzzi G. Leptin: a pivotal mediator of intestinal inflammation in mice. Gastroenterology 2002; 122: 2011-2025). Animals with acute or chronic colitis were treated i.p. with either physiological NaCl as control or Gal-2 once daily (od), twice daily (bid) or three time daily (tid) for 10 days. In one experimental protocol Gal-2 and NaCl 0.9% were injected subcutaneously. Gal-2 doses ranging from 0.5-2 mg/kg body weight in individual doses and total daily doses of 3 mg/kg body weight and different dosing regimens were evaluated. Tacrolimus (1 mg/kg bodyweight), Infliximab (10 mg/kg bodyweight), prednisolone (1 mg/kg bodyweight), all well-known modulators of experimental colitis and human inflammatory bowel diseases were used as positive controls.
PBT were isolated, stimulated with CD3 for 3 days and cytokine secretion was determined by cytometric bead array (CBA) analysis as described previously (Sturm A, Rilling K, Baumgart D C, Gargas K, Abou-Ghazale T, Raupach B, Eckert J, Schumann R R, Enders C, Sonnenborn U, Wiedenmann B, Dignass A U. Escherichia coli Nissle 1917 distinctively modulates T-cell cycling and expansion via toll-like receptor 2 signaling. Infect.Immun. 2005; 73: 1452-1465.) Mucosal recruitment of granulocytes was assessed by Myeloperoxidase activity (Rath H C, Herfarth H H, Ikeda J S, Grenther W B, Hamm T E, Jr., Balish E, Taurog J D, Hammer R E, Wilson K H, Sartor R B. Normal Luminal Bacteria, Especially Bacteroides Species, Mediate Chronic Colitis, Gastritis, and Arthritis in HLA-B27/Human beta 2 Microglobulin Transgenic Rats. Journal of Clinical Investigation 1996; 98: 945-953).

[2] = test system: PBT; assay: Mitochondrial membrane potential (rhodamine 123); type: cell-based, human; settings: CD3 activated PBT, 50 μg/ml
Description: Rhodamine 123 is a fluorescent cationic dye that accumulates in the mitochondrial matrix because of its charge and solubility in both the inner mitochondrial membrane and matrix space (22). Based on the observation that accumulation of this lipophilic dye is in proportion to ΔΨ, and that deenergizing of the mitochondria decreases rhodamine 123 fluorescence (23), the inventors measured the mitochondrial membrane potential of PBT. Cells were stimulated in the presence or absence of galectin-2 with CD3 for 24 h, harvested, washed and resuspended in 1 ml of rhodamine 123 (10 μg/ml, Sigma-Aldrich) for 30 min at 37° C. in the dark. The samples were washed twice in cold PBS and fluorescence analysis by flow cytometry using an argon ion laser with an emission filter at 530 nm was performed immediately without fixation (BD FacsCalibur). PBT without stimulation and unstained samples were used as controls.

[3] = test system: PBT; assay: Analysis of T cell cycling (DNA content, cyclin B1, cell cycle regulators); type: cell-based, human
Procedure: For immunoblotting cells were washed in PBS, and lysed in cell lysis buffer (1% Triton-X, 0.5% NP-40, 0.1% SDS, 0.5% sodium deoxycholate, 5 mM EDTA, 50 mM and 50 mM protease- and phosphatase-inhibitor cocktail 2, 1 mM PMSF, 100 μg/ml trypsin-chymotrypsin inhibitor, 100 μg/ml chymostatin in PBS). The concentration of proteins in each lysate was measured using the Bio-Rad protein assay (Bio-Rad Laboratories, Hercules, Calif.). Equivalent amounts of protein (10 μg) were fractionated on a 10-20% Tris-glycine gel and electrotransferred to a nitrocellulose membrane (Novex, San Diego, Calif.). Membranes were blocked with 5% milk in 0.1% Tween 20-PBS (Fisher Scientific, Hanover Park, Ill.), followed by incubation for 60 m in at room temperature with the indicated primary antibody. The membranes were washed six times with 0.1% Tween 20-PBS and then incubated for 1 h with the appropriate horseradish peroxidase-conjugated secondary antibody (Santa Cruz Biotechnology), washed, and incubated with the chemiluminescent substrate (Perkin-Elmer, Carlsbad, Calif.) for 5 minutes. The membranes were then exposed to film (Amersham, Arlington Heights, Ill.).
Flow cytometry was performed after staining for DNA content, and cyclin B1, essentially as previously described (21). Briefly, cells were washed twice with PBS, adjusted to 1×10^6 cells/sample and fixed in 90% Methanol at −20° C. After fixation, cells were washed twice with PBS, incubated for 45 min at 4° C. with a cyclin B1-FITC conjugated monoclonal antibody. After the final wash, cells were resupended in PBS and 5 μl of RNase (0.6 μg/ml, 30-60 Kunitz Units, Sigma), incubated at 37° C. for 15 min and the chilled on ice. One hundred and twenty five microliters of PI (200 μg/ml) were added prior to analysis by flow cytometry. Each analysis was performed on at least 25.000 events.

[4] = test system: PBT; assay: Cytokine secretion (cytometric bead array); type: cell-based, human
Procedure: To determine cytokine secretion, PBT were cultured for 48 h with or without anti-CD3 mAb and incubated in the presence or absence of 0, 10, or 50 μg/ml Gal-2. The supernatant was then collected and cytokine secretion determined by a cytometric bead array, performed according to the manufacturer's instruction (BD Pharmingen). Briefly, six bead populations with distinct fluorescence intensities, coated with capture antibodies specific for TNF-α, IFN-γ, IL-10, IL-5, IL-4, and IL-2 proteins, were mixed with PE-conjugated detection anti-bodies and incubated with recombinant standards or test sample to form sandwich complexes. Following acquisition of sample data using flow cytometry, the cytokine concentrations were calculated using the BD CBA analysis software.

B1: galectin-2: β-galactoside binding lectin, non-covalent dimer with subunits of about 14 kDa; recombinant human or rat (SEQ ID NO:1, 2) (protein)
chain: MAGELEVKNMDMKPGSTLKITGSIADGTDGFVINLGQGTDKLNLHFNPRFSESTIVCNSLDGSNWGQEQREDHLCFSPGSEVKFTVTFESDKFKVKLPDGHELTFPNRLGHSHLSYLSVRGGFNMSSFKLKE
effect on disease activity (DAI) ([1]; acute and chronic DSS colitis, i.p., different dosing intervals and doses): significantly reduced disease activity | safety and toxicity ([1]; acute and chronic DSS model): did not reveal any abnormalities | myeloperoxidase, mucosal granulocyte infiltration ([1]; data not shown): significant reduction of mucosal granulocyte infiltration | deaths ([1]; doses 1-3 mg/kg body weight): no deaths were observed | human versus rat Gal-2, disease activity ([1]; equivalent doses and treatment regimens): No significant differences were observed | improvement of disease activity ([1]; optimal dose 2×1 mg/kg bodyweight): more than 250% | total daily dose range with largest benefit on disease activity ([1]; per day): 1.5-3 mg/kg bodyweight | effect on disease activity (DAI) ([1]; subcutaneous (sc) administration): only in minor and not significant improvement of disease activity | effects compared with positive controls ([1]; tacrolimus 1 mg/kg, infliximab 10 mg/kg, prednisolone 1 mg/kg): comparable with the potent immunomodulator tacrolimus and more potent as the effects observed for prednisolone and infliximab | histological analyses of intestinal injury and inflammation ([1]; versus control animals): significant reduction of intestinal injury and inflammation | mitochondrial polarization potential [2]: clear decrease in the mitochondrial polarization potential | cyclin B1 levels / cell cycle progression ([3]; anti-CD3 activated PBT): unchanged cyclin B1 levels | cell cycle phase distribution ([3]; anti-CD3 activated PBT, 25, 50, 100 μg/ml): comparable | protein levels of cyclin D2, Rb, cyclin A, p21, p27, p53 ([3]; western blot, 72 h): did not alter protein levels | IFN-γ production ([4]; anti-CD3 activated T cells): downregulated significantly and dose-dependently | IL-2 secretion ([4]; anti-CD3 activated T cells): not influenced | IL-4 secretion ([4]; anti-CD3 activated T cells): not altered | IL-5 secretion ([4]; anti-CD3 activated T cells): increasing | IL-10 secretion ([4]; anti-CD3 activated T cells): increasing | TNF-α production ([4]; anti-CD3 activated T cells): downregulated significantly and dose-dependently | cytokine production of resting T cells ([4]; resting T cells): failed to modulate cytokine production of resting T cells
